IntAct's records for PubMed 19276109

B1: Protein ABSCISIC ACID-… 5 (Arabidopsis thaliana (Mouse-ear cress)), Q9SJN0 (parent)
chain: MVTRETKLTSEREVESSMAQARHNGGGGGENHPFTSLGRQSSIYSLTLDEFQHALCENGKNFGSMNMDEFLVSIWNAEENNNNQQQAAAAAGSHSVPANHNGFNNNNNNGGEGGVGVFSGGSRGNEDANNKRGIANESSLPRQGSLTLPAPLCRKTVDEVWSEIHRGGGSGNGGDSNGRSSSSNGQNNAQNGGETAARQPTFGEMTLEDFLVKAGVVREHPTNPKPNPNPNQNQNPSSVIPAAAQQQLYGVFQGTGDPSFPGQAMGVGDPSGYAKRTGGGGYQQAPPVQAGVCYGGGVGFGAGGQQMGMVGPLSPVSSDGLGHGQVDNIGGQYGVDMGGLRGRKRVVDGPVEKVVERRQRRMIKNRESAARSRARKQAYTVELEAELNQLKEENAQLKHALAELERKRKQQYFESLKSRAQPKLPKSNGRLRTLMRNPSCPL

Variants of: B1
Details: with sumo1_arath SUMO1, P55852
Chain of sumo1_arath SUMO1, P55852 (P55852 whole entry): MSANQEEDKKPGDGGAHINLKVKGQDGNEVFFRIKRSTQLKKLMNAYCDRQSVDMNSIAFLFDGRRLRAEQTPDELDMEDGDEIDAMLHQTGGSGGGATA

Variant	effect of a mutation on the interaction
MVTRETKLTSEREVESSMAQARHNGGGGGENHPFTSLGRQSSIYSLTLDEFQHALCENGKNFGSMNMDEFLVSIWNAEENNNNQQQAAAAAGSHSVPANHNGFNNNNNNGGEGGVGVFSGGSRGNEDANNKRGIANESSLPRQGSLTLPAPLCRKTVDEVWSEIHRGGGSGNGGDSNGRSSSSNGQNNAQNGGETAARQPTFGEMTLEDFLVKAGVVREHPTNPKPNPNPNQNQNPSSVIPAAAQQQLYGVFQGTGDPSFPGQAMGVGDPSGYAKRTGGGGYQQAPPVQAGVCYGGGVGFGAGGQQMGMVGPLSPVSSDGLGHGQVDNIGGQYGVDMGGLRGRKRVVDGPVEKVVERRQRRMIKNRESAARSRARKQAYTVELEAELNQLREENAQLKHALAELERKRKQQYFESLKSRAQPKLPKSNGRLRTLMRNPSCPL [K391R]	disrupting interaction
